US10925971B2, “Methods of treating PRLR positive breast cancer” (Regeneron Pharmaceuticals, Inc., priority 2016, dated 2021)

Legend:
[1] = system: MCF7 (MCF7/ATCC) cells; assay: In vitro cell viability (cell kill) assay, nuclear counts; format: cell-based, human; conditions: MCF7 cells, approximately 3000 copies of PRLR per cell
Procedure, shortened: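 Anti-PRLR–DM1 ADCs (non-cleavable SMCC linker) or free DM1-SMe, 500 nM to 5 pM for 3 days on parental or hPRLR-overexpressing lines. HEK293: CCK8 OD450; MCF7: Hoechst nuclear counts by imaging.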

[2] = system: T47DvII tumors; assay: Phospho-histone-H3 (pHH3) IHC in treated tumors, mitotic arrest; format: in vivo, mice
Experimental: In order to validate the activity of DM1 on microtubule activity, the induction of mitotic arrest following treatment of T47DvII tumors with H1H6958N2-DM1 in vivo was assessed by phospho-histone-H3 (pHH3) IHC. Mice were implanted with T47DvII cells and tumors were grown for 15 days where mice were randomized based on tumor volume and dosed intravenously with either vehicle, H1H6958N2-DM1 at 5 or 15 mg/kg or Control ADC at 15 mg/kg (N=4-5). At 24, 48 or 72 hours post-treatment, mice were euthanized and tumors processed as FFPE samples for IHC analysis. Tumor sections were then stained with anti-phospho Histone H3 (pHH3) antibody (clone: Ser10, Cell Signaling Technology #9701) as a measure of mitotic cells. Images were scanned on an Aperio XT Scan scope at 40× (Leica Systems). PHH3 positive nuclear signals were imaged and quantified with the Halo CytoNuclear Count algorithm (Halo, Indica Labs). The percent of positive cells in each tumor was quantified for each group and an average calculated for each treatment condition.

[3] = system: PRLR expressing cells; assay: In vitro cell viability (cell kill) assay, several cell backgrounds; format: cell-based, human; conditions: PC3/hPRLR and MCF7/hPRLR cell lines
Description: PRLR-overexpressing cells, including HEK293, PC3, MCF7 and NCI-N87, were generated to assess the ability of anti-PRLR conjugated antibodies to reduce cell viability. For comparative purposes, PC3 and T47D cells with overexpressed ErbB2 were also generated, as well as an MCF7 cell line over-expressing both hPRLR and hErbB2. Briefly, Lipofectamine® 2000-mediated transfection methodology was utilized to generate HEK293 cells expressing human PRLR (HEK293/hPRLR) or human ErbB2 (HEK293/hErbB2). Lipofectamine LTX with Plus Reagent was used to generate PC3 cells expressing human PRLR (PC3/hPRLR) or human ErbB2 (PC3/hErbB2). Lentiviral-mediated transduction was utilized to generate MCF7 cells expressing human PRLR (MCF7/hPRLR), NCI-N87 cells expressing human PRLR (NCI-N87/hPRLR), T47D cells over-expressing human ErbB2 (T47D/hErbB2), and MCF7 cells expressing both human PRLR and human ErbB2 (MCF7/hPRLR/hErbB2). All lines were selected for at least two weeks in complete growth media plus appropriate selection reagents. Stably expressing populations were enriched for PRLR expression via FACS using the anti PRLR antibody Control I.
Next, the ability of anti-PRLR-DM1 antibody-drug conjugates (i.e., anti-PRLR antibodies conjugated to DM1 via a non-cleavable linker [SMCC]) to reduce cell viability was determined using in vitro cell based assays. Cells were seeded in PDL-coated 96 well plates at 1500 to 10000 cells per well in complete growth media and allowed to grow overnight. For cell viability curves, ADCs or free DM1 (as the methyl disulfide derivative DM1-SMe) were added to the cells at final concentrations ranging from 500 nM to 5 pM and incubated for 3 days. The 293, PC3 and T47D cells were incubated with CCK8 (Dojindo, Rockville, Md.) for the final 1-3 hours and the absorbance at 450 nm (OD450) was determined on a Flexstation3 (Molecular Devices, Sunnyvale, Calif.). MCF7 cells were treated with Hoechst 33342 nuclear stain while being fixed with 4% formaldehyde. Images were acquired on the ImageXpress micro XL (Molecular Devices, Sunnyvale, Calif.) and nuclear counts were determined via Columbus image analysis software (Perkin Elmer, Shelton, Conn.). Background OD450 values (PC3, 293, and T47D) or nuclear counts (MCF7) from digitonin (40 nM) treated cells was subtracted from all wells and viability was expressed as a percentage of the untreated controls. IC50 values were determined from a four-parameter logistic equation over a 10-point response curve (GraphPad Prism).

[4] = system: MCF7 tumors; assay: MCF7 breast tumor xenograft, tumor volume; format: in vivo, NCr nude mice
Experimental: After MCF7 or MCF7/PRLR tumors reached an average volume of ˜150-200 mm^3 (14-16 days post implantation), mice were randomized into treatment groups (n=8-9 mice/group) and received a single dose or three once-weekly doses of H1H6958N2-DM1, control ADC, or vehicle control, administered systemically by intravenous tail-vein injection. Tumor size and body weight were measured in vivo twice per week throughout the duration of the study.
The T47Dv11 model was used to assess the activity of H1H6958N2-DM1 in a model with significant levels of endogenous PRLR. As parental T47D cells are poorly tumorigenic, in vivo passaging was employed to develop a variant with consistent tumorigenicity. Initially, 10×10^6 parental T47D cells were implanted subcutaneously (SC) into the left flank of female C.B.-17 SCID mice (Taconic, Hudson N.Y.). Tumors were supplemented with a 90-day release 1.7 mg estrogen pellet (Innovative Research America). Where T47D tumors were observed, they were excised and cut into 3 mm fragments and subsequently implanted into the left flank of separate female C.B.-17 SCID mice. Subsequent passaging was performed until a large tumor was disaggregated into a single cell suspension. The cells (named T47Dv11) from this tumor were then cultured in vitro and expanded. […] For efficacy studies, mice were implanted with 7.5×10^6 T47Dv11 cells into the left flank of female C.B.-17 SCID mice supplemented with a 90-day release 0.72 mg/pellet estrogen pellet. For MCF7 and MCF7/PRLR tumor xenografts, 2×10^7 MCF7/PRLR cells were implanted SC into the left mammary fat pad of female NCr nude mice (7-8 weeks old) supplemented with 90-day release 0.72 mg/pellet estrogen pellets. Tumors were measured with calipers twice a week for the duration of each study. Tumor volume was calculated using the formula TV=(length×width^2)/2.

B1: H1H6958N2-DM1: anti-PRLR antibody H1H6958N2 conjugated to the maytansinoid DM1 through an SMCC linker (conjugate)
VH: QVQLVESGGGVVQPGRSLRLSCGASGFTFRNYGMQWVRQGPGKGLEWVTLISFDGNDKYYADSVKGRFTISRDNSKNTLFLQMNSLRTEDTAVYYCARGGDFDYWGQGTLVTVSS
VL: DIQMTQSPSSLSASVGDRVTITCRASQDIRKDLGWYQQKPGKAPKRLIYAASSLHSGVPSRFSGSGSGTEFTLTISSLQPEDFATYYCLQHNSYPMYTFGQGTKLEIK
**Q.** What does the source list for B1?
**A.** MCF7 cell killing in vitro [1]: not inhibited; pHH3 immunoreactivity in tumors ([2]; 5 mg/kg intravenously, relative to vehicle): significant increase relative to vehicle treated tumors; pHH3 levels in tumors ([2]; 15 mg/kg, data not shown): further increase in pHH3 levels; time of peak pHH3 levels post treatment ([2]; sampled at 24, 48 or 72 hours): 48 hours; cell killing, non-cleavable DM1 ADCs versus cleavable MMAE ADCs [3]: nearly equivalent cell killing; anti-tumor activity ([4]; repeat treatment (q7dx3), 10 and 15 mg/kg, relative to control ADC): significantly inhibited MCF7 tumor growth; anti-tumor activity ([4]; single dose 15 mg/kg, relative to control ADC): significantly inhibited the growth of the MCF7 tumors; anti-tumor activity ([4]; single dose of 5 or 10 mg/kg): moderate in vivo anti-tumor activity
